Data: US7888068B2, “Cloning of honey bee allergen C” (PLS-Design GmbH, priority 2006, dated 2011)
“Also recorded” adds a separate entry of the source.

B1: Api m 5 (protein)
chain: KSVPRVIDQDLERYEPLEEEDHRGARVPFNLEETYDQSFRANSFNGTWKTDREILYSDNYVGDIRLFDVTTGSGTVLLDSSVTADFDKASVMFSFDNSHVAIGHDYVNGFRYSIHQKCTVYNIKSRTFTDIANGDRIPLFKWSPTRNALIYVHKNDIYYQVFFEGGSDTRRITNTGVPDIVFNGIPDWVYEEEVLGSPVAFWISPDGRHLAFATFNDTNVRDIVISKYGSPGNSRDQYPNEIRIKYPKAGTTNPFVSLSVIDLHDPSSKLIDLPPPVDVVGADNVLYTANWRRDGEIVATWTNRVQNKAQLVLYDTKGNANNIYYEEETEGWLRIQPPLYHDRYVIVAKLQDSGTKAGRFLHATRLEYRNGALVDETDLTPGTCEVISLLLVDHARARLYYLGTELGKPSHKNLYSVQLSGNEPPVCLSCDVLTPEGNRCTYAYAYFSTNGSHYALYCAGPDPVFIAIVNANHRQISIWEENRSLRRKLAARTQPIVKNFNVNANGYTNKVKLYLPPDFDETKKYPLLITVYAGPNTIRITEEATYGFESYIVTNRSVIYGRIDGRGSAYKGSKMLFEIYRRLGTVEIEDQIIITRTLQEKYSWIDSNRTGIWGWSYGGFSAAMVLATDAESVFKCGISVAPVTSWIYYDSLYTERFMGLPTPEDNQSGYNDTDVSRRVEGMRGKKYMLIHGTADDNVHYQQTMMLNKALVNSDIMFQQQTYTDEAHALGNVFPHLYHTTDRFWANCLGYSH
B2: recombinant Api m 5: cloned recombinant Api m 5 expressed from vector pIB/Api5 with melittin signal sequence and His-tag (protein, listed as Apis mellifera)
chain: MEVLVQLALLLVVHGSLVVLVAGKSVPRVIDQDLERYEPLEEEDHRGARVPFNLEETYDQSFRANSFNGTWKTDREILYSDNYVGDIRLFDVTTGSGTVLLDSSVTADFDKASVMFSFDNSHVAIGHDYVNGFRYSIHQKCTVYNIKSRTFTDIANGDRIPLFKWSPTRNALIYVHKNDIYYQVFFEGGSDTRRITNTGVPDIVFNGIPDWVYEEEVLGSPVAFWISPDGRHLAFATFNDTNVRDIVISKYGSPGNSRDQYPNEIRIKYPKAGTTNPFVSLSVIDLHDPSSKLIDLPPPVDVVGADNVLYTANWRRDGEIVATWTNRVQNKAQLVLYDTKGNANNIYYEEETEGWLRIQPPLYHDRYVIVAKLQDSGTKAGRFLHATRLEYRNGALVDETDLTPGTCEVISLLLVDHARARLYYLGTELGKPSHKNLYSVQLSGNEPPVCLSCDVLTPEGNRCTYAYAYFSTNGSHYALYCAGPDPVFIAIVNANHRQISIWEENRSLRRKLAARTQPIVKNFNVNANGYTNKVKLYLPPDFDETKKYPLLITVYAGPNTIRITEEATYGFESYIVTNRSVIYGRIDGRGSAYKGSKMLFEIYRRLGTVEIEDQIIITRTLQEKYSWIDSNRTGIWGWSYGGFSAAMVLATDAESVFKCGISVAPVTSWIYYDSLYTERFMGLPTPEDNQSGYNDTDVSRRVEGMRGKKYMLIHGTADDNVHYQQTMMLNKALVNSDIMFQQQTYTDEAHALGNVFPHLYHTTDRFWANCLGYSH
modifications: His-tag, melittin signal

Legend:
[1] = test system: IgE from pooled serum from honey bee allergic patients; experiment: Immunoprinting of enriched Api m 5 with pooled serum from honey bee allergic patients (AlaBLOT, anti-IgE detection); format: binding, human; settings: pooled serum from honey bee allergic patients diluted 1:10; anti-IgE alkaline phosphatase conjugate; BSA negative control
Experimental: Detection was performed with anti-IgE alkaline phosphatase conjugate (DPC Alablot system). Lane 1: BSA, negative control; Lane 2: honey bee venom; Lane 3: Enriched Api m 5 fraction; Lane 4: Protein standard (PageRuler™ Prestained Protein Standard, Fermentas GmbH).
Immunoprinting was performed to verify the allergic potential of enriched Api m 5. Two SDS-PAGE gel slabs with each containing samples of bovine serum albumin, honey bee venom and bee venom enriched in Api m 5, were run and eletroblotted onto a nitrocellulose membranes (Protran™, Whatman GmbH, Dassel, Germany). The nitrocellulose membranes were pre-equilibrated in transfer buffer (20 mm CAPS, pH 11, 10% (v/v) methanol). Transfer was done at 50V for 3 hours submersed in blotting buffer in a blotting chamber (model TE22, Amersham Pharmacia, Freiburg, Germany) according to the instructions of the manufacturer. One membrane was subsequently stained with coomassie brilliant blue G250 according to the instructions of the manufacturer. […] Using the AlaBLOT system kit (DPC Biermann GmbH, Bad Nauheim, Germany) blocked sample strips were incubated with pooled serum from honey bee allergic patients diluted 1:10, washed and analyzed for binding of anti-IgE antibodies.

bee venom allergic sera = settings: two studies (Ref. 10); cited from earlier work
[2] = test system: phospholipase A2 (Api m 1), hyaluronidase (Api m 2), acid phosphatase (Api m 3), and melittin (Api m 4); settings: versus Api m 1, Api m 2, Api m 3, Api m 4 and other minor components (Ref. 14); cited from earlier work
[3] = Dipeptidyl peptidase activity assay with Gly-Pro p-nitroanilide substrate; format: biochemical; settings: 0.5 mM Gly-Pro-pNA, 25° C., monitored at 405 nm, compared to buffer alone
Experimental: One putative target of the enzyme might be the specific cleavage of the N-terminal peptide of pro-melittin to generate active melittin. The cleavage releases dipeptides with a C-terminal proline. Activity of such dipeptidases can be examined using the substrate Gly-Pro p-nitroanilide hydrochloride (Ref 22). Purified Api m 5 in NTA-binding buffer containing 300 mmol/L was incubated with 0.5 mM glycylpropyl p-nitroanilide (Gly-Pro-pNA, Sigma-Aldrich GmbH, Munich, Germany) as a substrate at 25° C. Released p-nitroaniline was spectrophotometrically monitored at 405 nm (FIG. 10).

Row | Molecule | binding of IgE / allergic potential in immunoprinting [1] | reaction of bee venom allergic sera (bee venom allergic sera) | cross-reactivity in immunodiffusion [2] | dipeptidyl peptidase activity (release of p-nitroaniline) [3]
1 | B1 | binds to sIgE of honey bee allergic patients; also recorded: exhibited the allergic potential as seen in whole bee venom | virtually all tested bee venom allergic sera have been shown to react | noncross-reactive | 
2 | B2 |  |  |  | Clearly the peptidase activity of recombinant Api m 5 in releasing the chromogenic label from the dipeptide can be seen; also recorded: showed a dipeptidyl peptidase activity
